Data: publication PMC9924070 (Science Translational Medicine, 2021)
Positions count from the first letter of the chain named. Names and notes keep the numbering of the source.

B1: humVHH_S56A (VHH)
VHH: EVQLVESGGGLVQPGGSLRLSCAASGRTFSEYAMGWFRQAPGKEREFVATISWSGGATYYTDSVKGRFTISRDNAKNTVYLQMNSLRPEDTAVYYCAAAGLGTVVSEWDYDYDYWGQGTLVTVSS
notes: also called humVHH72_S56A; VHH72_h1_S56A
B2: humVHH_S56A (VHH)
VHH: B1 VHH
notes: also called monomeric humanized VHH72 with the S56A substitution
B3: humVHH (VHH)
VHH: B1 VHH with A57S
notes: also called humanized VHH72; VHH72_h1

Tests used:
[1] = target: mouse IgG1 Fc-fused SARS-CoV-2 RBD (SARS-CoV-2, UniProt P0DTC2); assay: BLI; details: both partners purified
[2] = target: monomeric human Fc-fused SARS-CoV-2_RBD-SD1 (SARS-CoV-2, Wuhan-Hu-1, UniProt P0DTC2); assay: BLI; details: both partners purified
SARS-CoV-1 spike = SARS-CoV-1 spike (SARS-CoV-1, reference entry; strain not …, UniProt P59594); assay: cell-based or functional assay

Row | Binder | koff [1] [s⁻¹] | fold increase in affinity over humVHH [2] [fold] | neutralization of VSV SARS-CoV-1 spike pseudotype virus, potency against humVHH (SARS-CoV-1 spike) [fold]
1 | B1 | 0.019 | – | –
2 | B2 | – | ~7 | 10
3 | B3 | 0.075 | – | –
